Reference: US20200079833A1 (AstraZeneca / MedImmune, published 2020)
Starred links: 1 amine or outer side, 2 acyl side, 3 side chain; linkers in the order of their positions; H or OH if unused. Non-standard residues stand in square brackets, D forms with d. Groups on a side chain read outwards from the residue. Primed or numbered codes have the meaning given here. No end group written: not given here. *: point of attachment. γGlu = O=C(O)[C@H](CCC(=O)[*:2])N[*:1]; Stearoyl = CCCCCCCCCCCCCCCCCC(=O)*; Palmitoyl = CCCCCCCCCCCCCCCC(=O)*; αMeF = C[C@](N)(Cc1ccccc1)C(=O)O; αMeK = C[C@](N)(CCCCN)C(=O)O; αMeS = C[C@](N)(CO)C(=O)O; PEG2′ = not defined here; Aib = CC(C)(N)C(=O)O

T1: glucose-dependent insulinotropic peptide (gastric inhibitory polypeptide) receptor (GIPR) (human, UniProt P48546 22-466)
T1 sequence (looked up): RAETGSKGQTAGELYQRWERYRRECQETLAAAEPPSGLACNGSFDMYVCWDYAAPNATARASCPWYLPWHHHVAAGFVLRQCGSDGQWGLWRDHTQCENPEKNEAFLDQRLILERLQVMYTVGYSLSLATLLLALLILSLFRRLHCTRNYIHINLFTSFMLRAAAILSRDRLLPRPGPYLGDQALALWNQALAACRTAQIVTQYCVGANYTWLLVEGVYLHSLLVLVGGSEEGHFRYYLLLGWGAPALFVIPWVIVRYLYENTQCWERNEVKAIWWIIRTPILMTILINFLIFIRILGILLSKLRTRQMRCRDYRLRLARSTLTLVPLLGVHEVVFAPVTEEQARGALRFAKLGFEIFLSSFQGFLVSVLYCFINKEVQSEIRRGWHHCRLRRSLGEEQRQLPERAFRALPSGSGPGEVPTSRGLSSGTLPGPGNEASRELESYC

B1: SEQ ID NO 93 (peptide)
peptide: H[Aib]EGS[αMeF]K([γGlu-Palmitoyl])SDV[αMeS]S[αMeF]LEGEAA[αMeK]E[αMeF]IA[αMeF]VV[αMeK]GG-NH2
modifications: N-terminus assumed
SMILES: CCCCCCCCCCCCCCCC(=O)N[C@@H](CCC(=O)NCCCC[C@H](NC(=O)[C@](C)(Cc1ccccc1)NC(=O)[C@H](CO)NC(=O)CNC(=O)[C@H](CCC(=O)O)NC(=O)C(C)(C)NC(=O)[C@@H](N)Cc1c[nH]cn1)C(=O)N[C@@H](CO)C(=O)N[C@@H](CC(=O)O)C(=O)N[C@H](C(=O)N[C@@](C)(CO)C(=O)N[C@@H](CO)C(=O)N[C@@](C)(Cc1ccccc1)C(=O)N[C@@H](CC(C)C)C(=O)N[C@@H](CCC(=O)O)C(=O)NCC(=O)N[C@@H](CCC(=O)O)C(=O)N[C@@H](C)C(=O)N[C@@H](C)C(=O)N[C@@](C)(CCCCN)C(=O)N[C@@H](CCC(=O)O)C(=O)N[C@@](C)(Cc1ccccc1)C(=O)N[C@H](C(=O)N[C@@H](C)C(=O)N[C@@](C)(Cc1ccccc1)C(=O)N[C@H](C(=O)N[C@H](C(=O)N[C@@](C)(CCCCN)C(=O)NCC(=O)NCC(N)=O)C(C)C)C(C)C)[C@@H](C)CC)C(C)C)C(=O)O
B2: SEQ ID NO 94 (peptide)
peptide: H[Aib]EGSK([γGlu-Palmitoyl])TSDV[αMeS]S[αMeF]LEGEAA[αMeK]E[αMeF]IA[αMeF]VV[αMeK]GG-NH2
modifications: N-terminus assumed
SMILES: CCCCCCCCCCCCCCCC(=O)N[C@@H](CCC(=O)NCCCC[C@H](NC(=O)[C@H](CO)NC(=O)CNC(=O)[C@H](CCC(=O)O)NC(=O)C(C)(C)NC(=O)[C@@H](N)Cc1c[nH]cn1)C(=O)N[C@H](C(=O)N[C@@H](CO)C(=O)N[C@@H](CC(=O)O)C(=O)N[C@H](C(=O)N[C@@](C)(CO)C(=O)N[C@@H](CO)C(=O)N[C@@](C)(Cc1ccccc1)C(=O)N[C@@H](CC(C)C)C(=O)N[C@@H](CCC(=O)O)C(=O)NCC(=O)N[C@@H](CCC(=O)O)C(=O)N[C@@H](C)C(=O)N[C@@H](C)C(=O)N[C@@](C)(CCCCN)C(=O)N[C@@H](CCC(=O)O)C(=O)N[C@@](C)(Cc1ccccc1)C(=O)N[C@H](C(=O)N[C@@H](C)C(=O)N[C@@](C)(Cc1ccccc1)C(=O)N[C@H](C(=O)N[C@H](C(=O)N[C@@](C)(CCCCN)C(=O)NCC(=O)NCC(N)=O)C(C)C)C(C)C)[C@@H](C)CC)C(C)C)[C@@H](C)O)C(=O)O
B3: SEQ ID NO 95 (peptide)
peptide: H[Aib]EGK([γGlu-Palmitoyl])[αMeF]TSDV[αMeS]S[αMeF]LEGEAA[αMeK]E[αMeF]IA[αMeF]VV[αMeK]GG-NH2
modifications: N-terminus assumed
SMILES: CCCCCCCCCCCCCCCC(=O)N[C@@H](CCC(=O)NCCCC[C@H](NC(=O)CNC(=O)[C@H](CCC(=O)O)NC(=O)C(C)(C)NC(=O)[C@@H](N)Cc1c[nH]cn1)C(=O)N[C@@](C)(Cc1ccccc1)C(=O)N[C@H](C(=O)N[C@@H](CO)C(=O)N[C@@H](CC(=O)O)C(=O)N[C@H](C(=O)N[C@@](C)(CO)C(=O)N[C@@H](CO)C(=O)N[C@@](C)(Cc1ccccc1)C(=O)N[C@@H](CC(C)C)C(=O)N[C@@H](CCC(=O)O)C(=O)NCC(=O)N[C@@H](CCC(=O)O)C(=O)N[C@@H](C)C(=O)N[C@@H](C)C(=O)N[C@@](C)(CCCCN)C(=O)N[C@@H](CCC(=O)O)C(=O)N[C@@](C)(Cc1ccccc1)C(=O)N[C@H](C(=O)N[C@@H](C)C(=O)N[C@@](C)(Cc1ccccc1)C(=O)N[C@H](C(=O)N[C@H](C(=O)N[C@@](C)(CCCCN)C(=O)NCC(=O)NCC(N)=O)C(C)C)C(C)C)[C@@H](C)CC)C(C)C)[C@@H](C)O)C(=O)O
B4: SEQ ID NO 96 (peptide)
peptide: H[Aib]EK([γGlu-Palmitoyl])S[αMeF]TSDV[αMeS]S[αMeF]LEGEAA[αMeK]E[αMeF]IA[αMeF]VV[αMeK]GG-NH2
modifications: N-terminus assumed
SMILES: CCCCCCCCCCCCCCCC(=O)N[C@@H](CCC(=O)NCCCC[C@H](NC(=O)[C@H](CCC(=O)O)NC(=O)C(C)(C)NC(=O)[C@@H](N)Cc1c[nH]cn1)C(=O)N[C@@H](CO)C(=O)N[C@@](C)(Cc1ccccc1)C(=O)N[C@H](C(=O)N[C@@H](CO)C(=O)N[C@@H](CC(=O)O)C(=O)N[C@H](C(=O)N[C@@](C)(CO)C(=O)N[C@@H](CO)C(=O)N[C@@](C)(Cc1ccccc1)C(=O)N[C@@H](CC(C)C)C(=O)N[C@@H](CCC(=O)O)C(=O)NCC(=O)N[C@@H](CCC(=O)O)C(=O)N[C@@H](C)C(=O)N[C@@H](C)C(=O)N[C@@](C)(CCCCN)C(=O)N[C@@H](CCC(=O)O)C(=O)N[C@@](C)(Cc1ccccc1)C(=O)N[C@H](C(=O)N[C@@H](C)C(=O)N[C@@](C)(Cc1ccccc1)C(=O)N[C@H](C(=O)N[C@H](C(=O)N[C@@](C)(CCCCN)C(=O)NCC(=O)NCC(N)=O)C(C)C)C(C)C)[C@@H](C)CC)C(C)C)[C@@H](C)O)C(=O)O
B5: SEQ ID NO 97 (peptide)
peptide: H[Aib]K([γGlu-Palmitoyl])GS[αMeF]TSDV[αMeS]S[αMeF]LEGEAA[αMeK]E[αMeF]IA[αMeF]VV[αMeK]GG-NH2
modifications: N-terminus assumed
SMILES: CCCCCCCCCCCCCCCC(=O)N[C@@H](CCC(=O)NCCCC[C@H](NC(=O)C(C)(C)NC(=O)[C@@H](N)Cc1c[nH]cn1)C(=O)NCC(=O)N[C@@H](CO)C(=O)N[C@@](C)(Cc1ccccc1)C(=O)N[C@H](C(=O)N[C@@H](CO)C(=O)N[C@@H](CC(=O)O)C(=O)N[C@H](C(=O)N[C@@](C)(CO)C(=O)N[C@@H](CO)C(=O)N[C@@](C)(Cc1ccccc1)C(=O)N[C@@H](CC(C)C)C(=O)N[C@@H](CCC(=O)O)C(=O)NCC(=O)N[C@@H](CCC(=O)O)C(=O)N[C@@H](C)C(=O)N[C@@H](C)C(=O)N[C@@](C)(CCCCN)C(=O)N[C@@H](CCC(=O)O)C(=O)N[C@@](C)(Cc1ccccc1)C(=O)N[C@H](C(=O)N[C@@H](C)C(=O)N[C@@](C)(Cc1ccccc1)C(=O)N[C@H](C(=O)N[C@H](C(=O)N[C@@](C)(CCCCN)C(=O)NCC(=O)NCC(N)=O)C(C)C)C(C)C)[C@@H](C)CC)C(C)C)[C@@H](C)O)C(=O)O
B6: SEQ ID NO 98 (peptide)
peptide: HK([γGlu-Palmitoyl])EGS[αMeF]TSDV[αMeS]S[αMeF]LEGEAA[αMeK]E[αMeF]IA[αMeF]VV[αMeK]GG-NH2
B7: SEQ ID NO 99 (peptide)
peptide: H[Aib]EGS[αMeF]TSDV[αMeS]S[αMeF]LEGEAA[αMeK]E[αMeF]IA[αMeF]VV[αMeK]GK([PEG2′-PEG2′-γGlu-Stearoyl])-NH2
B8: SEQ ID NO 100 (peptide)
peptide: H[Aib]EGS[αMeF]TSDV[αMeS]S[αMeF]LEGEAA[αMeK]E[αMeF]IA[αMeF]VV[αMeK]K([PEG2′-PEG2′-γGlu-Stearoyl])G-NH2
B9: SEQ ID NO 101 (peptide)
peptide: H[Aib]EGS[αMeF]TSDV[αMeS]S[αMeF]LEGEAA[αMeK]E[αMeF]IA[αMeF]VVK([PEG2′-PEG2′-γGlu-Stearoyl])GG-NH2

Molecular target: T1, glucose-dependent insulinotropic …
Assay: cell-based or functional assay

| Binder | cAMP Primary assay EC50 GIP-R [nM] | cAMP Primary assay EC50 GIP-R (2nd) [nM] |
| --- | --- | --- |
| B1 | 28 | 28 |
| B2 | 28 | 28 |
| B3 | 28 | 28 |
| B4 | 27 | 27 |
| B5 | 28 | 28 |
| B6 | 28 | 28 |
| B7 | 25 | 24.9 |
| B8 | 25 | 24.9 |
| B9 | 25 | 25.4 |

Molecular target: GLP-1 receptor (GLP-1R) (human, UniProt P43220 24-463)
Assay: cell-based or functional assay

| Binder | cAMP Mean pM GLP-1R [pM] | cAMP Primary assay EC50 GLP-1R n1 [nM] | cAMP Primary assay EC50 GLP-1R n2 [nM] |
| --- | --- | --- | --- |
| B1 | 27600 | 28 | 28 |
| B2 | 228 | 0.14 | 0.32 |
| B3 | 224 | 0.26 | 0.19 |
| B4 | 746 | 0.92 | 0.57 |
| B5 | 27800 | 28 | 28 |
| B6 | 27500 | 28 | 28 |
| B7 | 54 | 0.058 | 0.0493 |
| B8 | 15 | 0.016 | 0.0146 |
| B9 | 55 | 0.058 | 0.0512 |

Molecular target: glucagon receptor (GCGR) (human, UniProt P47871 26-477)
Assay: cell-based or functional assay

glucagon receptor (GCGR), sequence (P47871 26-477): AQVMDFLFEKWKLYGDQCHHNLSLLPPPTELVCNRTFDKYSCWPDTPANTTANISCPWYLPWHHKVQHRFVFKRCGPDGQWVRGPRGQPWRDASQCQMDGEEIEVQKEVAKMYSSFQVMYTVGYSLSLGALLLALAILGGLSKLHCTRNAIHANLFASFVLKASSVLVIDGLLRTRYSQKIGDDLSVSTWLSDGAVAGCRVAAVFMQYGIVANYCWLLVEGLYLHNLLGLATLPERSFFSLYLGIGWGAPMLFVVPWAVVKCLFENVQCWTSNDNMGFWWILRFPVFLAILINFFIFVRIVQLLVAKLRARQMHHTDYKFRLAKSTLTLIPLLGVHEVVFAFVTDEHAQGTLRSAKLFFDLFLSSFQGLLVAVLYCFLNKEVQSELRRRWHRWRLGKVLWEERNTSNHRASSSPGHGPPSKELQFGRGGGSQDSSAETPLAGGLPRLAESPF

| Binder | cAMP Primary assay EC50 Gluc-R [nM] | cAMP Primary assay EC50 Gluc-R (2nd) [nM] |
| --- | --- | --- |
| B1 | 28 | 28 |
| B2 | 28 | 28 |
| B3 | 28 | 28 |
| B4 | 27 | 27 |
| B5 | 28 | 28 |
| B6 | 28 | 28 |
| B7 | 25 | 24.9 |
| B8 | 25 | 24.9 |
| B9 | 25 | 25.4 |
